Source: US20130089496A1

Key:
[1] = molecular target: FcγRIIIa, V allele at position 158, on NK cells homozygous for V (human) (UniProt P08637); test: cell-based or functional assay
[2] = molecular target: FcγRIIIa, F allele at position 158, on NK cells homozygous for F (human) (UniProt P08637); test: cell-based or functional assay

Row | Substance | Inhibition of ADCC (cetuximab-mediated ADCC of A431 cells by NK cells) [1] | Inhibition of ADCC (trastuzumab-mediated ADCC of SKBR-3 cells by NK cells) [1] | Inhibition of ADCC (cetuximab-mediated ADCC of A431 cells by NK cells) [2] | Inhibition of ADCC (trastuzumab-mediated ADCC of SKBR-3 cells by NK cells) [2]
1 | aggregated IgG1 expressing GM 3+,1-,2- allotypes (antibody) | 79.4% | 97.4% | 76.5% | 94.5%
2 | aggregated IgG1 expressing GM 17+,1+,2+ allotypes (antibody) | 83.3% | 73.8% | 50.3% | 27.8%
